Values belong to the binder of their own block, whether it stands above or below them.
Legend:
[1] = target: T1, Human CD93 on the cell surface (human CD93 expressing CHO cells; HUVEC, U937 and KG1a cells) (human, UniProt Q9NPY3 22-652); experiment: FACS blocking of hIGFBP7-His binding; HUVEC cells
T1 chain: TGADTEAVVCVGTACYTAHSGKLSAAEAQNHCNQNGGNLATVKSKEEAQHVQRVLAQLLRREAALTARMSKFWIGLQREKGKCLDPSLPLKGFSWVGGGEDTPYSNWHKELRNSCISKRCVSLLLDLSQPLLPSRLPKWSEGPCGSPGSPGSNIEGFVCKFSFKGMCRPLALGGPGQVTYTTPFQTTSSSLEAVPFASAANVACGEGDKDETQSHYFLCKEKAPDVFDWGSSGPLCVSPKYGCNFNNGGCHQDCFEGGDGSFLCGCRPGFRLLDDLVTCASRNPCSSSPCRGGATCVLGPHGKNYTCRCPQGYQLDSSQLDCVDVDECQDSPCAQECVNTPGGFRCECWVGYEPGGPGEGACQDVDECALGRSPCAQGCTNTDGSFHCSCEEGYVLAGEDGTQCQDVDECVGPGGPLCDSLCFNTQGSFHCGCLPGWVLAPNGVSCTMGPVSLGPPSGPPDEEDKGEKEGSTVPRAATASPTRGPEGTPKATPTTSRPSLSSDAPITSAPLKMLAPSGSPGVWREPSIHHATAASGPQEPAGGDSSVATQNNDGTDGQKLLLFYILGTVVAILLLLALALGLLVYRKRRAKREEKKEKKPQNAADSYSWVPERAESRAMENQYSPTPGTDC

[2] = target: T1, Human CD93 on the cell surface (human …); experiment: FACS blocking of MMRN2 binding; FIG. 45

IC50 [1]: 1 nM
B1: h7F3 (humanized 7F3, VH3+VL3) (antibody, V domains shown)
VH: QVQLVQSGAEVKKPGASVKVSCKASGYTFTDYEMHWVRQAPGQGLEWMGGIDPETGDTAYNQNFKGRVTMTTDTSTSTAYMELRSLTSDDTAVYYCTNYGNLYYYAMDYWGQGTSVTVSS
VL: EIVLTQSPSSLSASVGDRVTITCRASSSVSSSYLHWYQQKPGKAPKLLIYSTSNLAFGVPSRFSGSGSGTSYTFTISSLQPEDIATYYCQQYSGYPLTFGSGTKLEIK

IC50 [2]: 225 nM
B2: h16E4 (humanized 16E4, VH4+VL6) (antibody, V domains shown)
VH: QVQLVQSGAEVKKPGASVKVSCKASGYTFTSYWMHWVRQAPGQGLEWMGEIDPSASYTYYNQKFKGRVTMTRDKSSSTVYMELSSLTSEDSAVYYCARSVYYGNKYFDVWGAGTTVTVSS
VL: DIQMTQSPSTLSASVGDRVTITCKASQSVDYAGDSYMNWYQQKPGKAPKLLIYAASNLESGVPSRFSGSGSGTEFTLTISSLQPDDFATYYCQQTNEDPRTFGGGTKLEIK

— US20230322935A1 (published 2023)
